According to the supplement of paper PMC10567573:

B1: FLOT1 (parent)
chain: QMAKKAEAFQLYQEAAQLDMLLEK

Variants of: B1
Experiment: protein stability index of a GFP-peptide fusion (GPS, HEK-293T) (PSI 1-6); higher = more stable
Conditions: c terminus: a fixed tail appended
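Note: lentivirally expressed fusions sorted by FACS into six bins by GFP to DsRed ratio, PSI derived from sequencing read proportions per bin multiplied by bin number.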

Variant | protein stability index
QMAKKAEAFQGYQEAAQLDMLLEK | 1.76
QMAKKAEAFQSYQEAAQLDMLLEK | 2.23
QMAKKAEAFQEYQEAAQLDMLLEK | 3.48
QMAKKAEAFQKYQEAAQLDMLLEK | 3.17
QMAKKAEAFQNYQEAAQLDMLLEK | 2.1
QMAKKAEAFQCYQEAAQLDMLLEK | 1.92
QMAKKAEAFQPYQEAAQLDMLLEK | 4.05
QMAKKAEAFQDYQEAAQLDMLLEK | 1.82
QMAKKAEAFQVYQEAAQLDMLLEK | 2.98
QMAKKAEAFQAYQEAAQLDMLLEK | 2.03
QMAKKAEAFQIYQEAAQLDMLLEK | 2.85
QMAKKAEAFQMYQEAAQLDMLLEK | 1.59
QMAKKAEAFQHYQEAAQLDMLLEK | 3.32
QMAKKAEAFQYYQEAAQLDMLLEK | 1.81
QMAKKAEAFQFYQEAAQLDMLLEK | 2.15
QMAKKAEYFQLYQEAAQLDMLLEK | 1.03
QMAKKAENFQLYQEAAQLDMLLEK | 1.4
QMAKKAETFQLYQEAAQLDMLLEK | 1.83
QMAKKAEVFQLYQEAAQLDMLLEK | 1.2
QMAKKAEMFQLYQEAAQLDMLLEK | 2.88
QMAKKAEEFQLYQEAAQLDMLLEK | 2.49
QMAKKAEIFQLYQEAAQLDMLLEK | 2.05
QMAKKAESFQLYQEAAQLDMLLEK | 1.49
QMAKKAECFQLYQEAAQLDMLLEK | 1.7

Variant | protein stability index
QMAKKAEPFQLYQEAAQLDMLLEK | 1.98
QMAKKAEWFQLYQEAAQLDMLLEK | 1.91
QMAKKAEHFQLYQEAAQLDMLLEK | 1.42
QMAKKAELFQLYQEAAQLDMLLEK | 2.55
QMAKKAEQFQLYQEAAQLDMLLEK | 1.64
QMAKKAEFFQLYQEAAQLDMLLEK | 3.96
QMAKKACAFQLYQEAAQLDMLLEK | 1.86
QMAKKAHAFQLYQEAAQLDMLLEK | 2.24
QMAKKAPAFQLYQEAAQLDMLLEK | 2.07
QMAKKAVAFQLYQEAAQLDMLLEK | 1.91
QMAKKASAFQLYQEAAQLDMLLEK | 4
QMAKKADAFQLYQEAAQLDMLLEK | 1.55
QMAKKAIAFQLYQEAAQLDMLLEK | 1.4
QMAKKALAFQLYQEAAQLDMLLEK | 2.95
QMAKKAAAFQLYQEAAQLDMLLEK | 2.46
QMAKKANAFQLYQEAAQLDMLLEK | 2.05
QMAKKAYAFQLYQEAAQLDMLLEK | 1.8
QMAKKAMAFQLYQEAAQLDMLLEK | 1.64
QMAKKATAFQLYQEAAQLDMLLEK | 1.36
QMAKKARAFQLYQEAAQLDMLLEK | 1.22
QMAKKAEAFQLYCEAAQLDMLLEK | 2.46
QMAKKAEAFQLYREAAQLDMLLEK | 2.81
QMAKKAEAFQLYTEAAQLDMLLEK | 2.85
QMAKKAEAFQLYNEAAQLDMLLEK | 3.82

Variant | protein stability index
QMAKKAEAFQLYKEAAQLDMLLEK | 2.62
QMAKKAEAFQLYYEAAQLDMLLEK | 1.96
QMAKKAEAFQLYDEAAQLDMLLEK | 4.08
QMAKKAEAFQLYIEAAQLDMLLEK | 2.49
QMAKKAEAFQLYGEAAQLDMLLEK | 3.57
QMAKKAEAFQLYMEAAQLDMLLEK | 3.5
QMAKKAEAFQLYSEAAQLDMLLEK | 1.8
QMAKKAEAFQLYPEAAQLDMLLEK | 3.87
QMAKKAEAFQLYLEAAQLDMLLEK | 3.2
QMAKKAEAFQLYEEAAQLDMLLEK | 2.92
QMAKKAEAFQLYHEAAQLDMLLEK | 3.6
QMAKKAEAFQLYFEAAQLDMLLEK | 1.52
QMAKKAEAFQLYQEAAALDMLLEK | 1.47
QMAKKAEAFQLYQEAAMLDMLLEK | 1.02
QMAKKAEAFQLYQEAARLDMLLEK | 2.46
QMAKKAEAFQLYQEAAKLDMLLEK | 1.65
QMAKKAEAFQLYQEAACLDMLLEK | 1.71
QMAKKAEAFQLYQEAAELDMLLEK | 1.89
QMAKKAEAFQLYQEAAVLDMLLEK | 1.14
QMAKKAEAFQLYQEAASLDMLLEK | 1.88
QMAKKAEAFQLYQEAAILDMLLEK | 1.72
QMAKKAEAFQLYQEAATLDMLLEK | 1.19
QMAKKAEAFQLYQEAAFLDMLLEK | 2.6
QMAKKAEAFQLYQEAAWLDMLLEK | 4.61

Variant | protein stability index
QMAKKAEAFQLYQEAALLDMLLEK | 1.58
QMAKKAEAFQLYQEAADLDMLLEK | 3.81
QMAKKAEAFQLYQEAAPLDMLLEK | 3.95
QMAKKAEAFQLLQEAAQLDMLLEK | 2.03
QMAKKAEAFQLNQEAAQLDMLLEK | 4.47
QMAKKAEAFQLHQEAAQLDMLLEK | 2.98
QMAKKAEAFQLCQEAAQLDMLLEK | 3.06
QMAKKAEAFQLAQEAAQLDMLLEK | 4.22
QMAKKAEAFQLDQEAAQLDMLLEK | 4.96
QMAKKAEAFQLSQEAAQLDMLLEK | 4.55
QMAKKAEAFQLTQEAAQLDMLLEK | 4.17
QMAKKAEAFQLEQEAAQLDMLLEK | 4.41
QMAKKAEAFQLFQEAAQLDMLLEK | 1.67
QMAKKAEAFQLKQEAAQLDMLLEK | 4.88
QMAKKAEAFQLPQEAAQLDMLLEK | 5.08
QMAKKAEAFQLRQEAAQLDMLLEK | 4.75
QMAKKAEAFQLGQEAAQLDMLLEK | 4.56
QMAKKAEAFQLIQEAAQLDMLLEK | 2.62
QMAKKAEAFQLYQEAAQEDMLLEK | 3.61
QMAKKAEAFQLYQEAAQFDMLLEK | 2.13
QMAKKAEAFQLYQEAAQCDMLLEK | 3.66
QMAKKAEAFQLYQEAAQADMLLEK | 1.85
QMAKKAEAFQLYQEAAQDDMLLEK | 3.52
QMAKKAEAFQLYQIAAQLDMLLEK | 3.03

Variant | protein stability index
QMAKKAEAFQLYQNAAQLDMLLEK | 2.5
QMAKKAEAFQLYQRAAQLDMLLEK | 2.21
QMAKKAEAFQLYQWAAQLDMLLEK | 1.96
QMAKKAEAFQLYQAAAQLDMLLEK | 1.3
QMAKKAEAFQLYQHAAQLDMLLEK | 1.94
QMAKKAEAFQLYQCAAQLDMLLEK | 2.61
QMAKKAEAFQLYQLAAQLDMLLEK | 1.97
QMAKKAEAFQLYQGAAQLDMLLEK | 2.58
QMAKKAEAFQLYQDAAQLDMLLEK | 2.13
QMAKKAEAFQLYQYAAQLDMLLEK | 2.71
QMAKKAEAFQLYQPAAQLDMLLEK | 3.12
QMAKKAEAFQLYQSAAQLDMLLEK | 2.03
QMAKKAEAFQLYQTAAQLDMLLEK | 1.97
QMAKKAEAFQLYQKAAQLDMLLEK | 1.83
QMAKKAEAFQLYQQAAQLDMLLEK | 1.36
QMAKKAEAWQLYQEAAQLDMLLEK | 1.86
QMAKKAEAHQLYQEAAQLDMLLEK | 2.26
QMAKKAEAAQLYQEAAQLDMLLEK | 2
QMAKKAEATQLYQEAAQLDMLLEK | 2.11
QMAKKAEAQQLYQEAAQLDMLLEK | 1
QMAKKAEANQLYQEAAQLDMLLEK | 1.82
QMAKKAEAKQLYQEAAQLDMLLEK | 2.63
QMAKKAEAIQLYQEAAQLDMLLEK | 1.88
QMAKKAEASQLYQEAAQLDMLLEK | 2.01

Variant | protein stability index
QMAKKAEAPQLYQEAAQLDMLLEK | 2.08
QMAKKAEALQLYQEAAQLDMLLEK | 2.37
QMAKKAEAMQLYQEAAQLDMLLEK | 1.72
QMAKKAEAEQLYQEAAQLDMLLEK | 3.65
QMAKKAEADQLYQEAAQLDMLLEK | 3.04
QMAKKAEACQLYQEAAQLDMLLEK | 1.41
QMAKKTEAFQLYQEAAQLDMLLEK | 1.38
QMAKKWEAFQLYQEAAQLDMLLEK | 2.21
QMAKKYEAFQLYQEAAQLDMLLEK | 1.53
QMAKKKEAFQLYQEAAQLDMLLEK | 2.43
QMAKKPEAFQLYQEAAQLDMLLEK | 2.37
QMAKKMEAFQLYQEAAQLDMLLEK | 1.32
QMAKKHEAFQLYQEAAQLDMLLEK | 1.99
QMAKKVEAFQLYQEAAQLDMLLEK | 1.75
QMAKKQEAFQLYQEAAQLDMLLEK | 1.91
QMAKKREAFQLYQEAAQLDMLLEK | 1.52
QMAKKNEAFQLYQEAAQLDMLLEK | 3.7
QMAKKAEAFQLYQEARQLDMLLEK | 3.45
QMAKKAEAFQLYQEAWQLDMLLEK | 1.35
QMAKKAEAFQLYQEAVQLDMLLEK | 1.1
QMAKKAEAFQLYQEAMQLDMLLEK | 2.79
QMAKKAEAFQLYQEATQLDMLLEK | 1.85
QMAKKAEAFQLYQEAKQLDMLLEK | 3.59
QMAKKAEAFQLYQEALQLDMLLEK | 2.63

Variant | protein stability index
QMAKKAEAFQLYQEAPQLDMLLEK | 4.27
QMAKKAEAFQLYQEAEQLDMLLEK | 3.98
QMAKKAEAFQLYQEASQLDMLLEK | 3.68
QMAKKAEAFQLYQEAQQLDMLLEK | 3.31
QMAKKAEAFQLYQEAYQLDMLLEK | 1.93
QMAKKAEAFQLYQEAHQLDMLLEK | 3.3
QMAKKAEAFQLYQEAGQLDMLLEK | 4.14
QMAKKAEAFQLYQEAIQLDMLLEK | 1.44
QMAKKAEAFQLYQEANQLDMLLEK | 2.45
QMAKKAEAFQLYQEADQLDMLLEK | 3.24
QMAKKAEAFQLYQEDAQLDMLLEK | 4.62
QMAKKAEAFQLYQEPAQLDMLLEK | 4.27
QMAKKAEAFQLYQEYAQLDMLLEK | 2.21
QMAKKAEAFQLYQEIAQLDMLLEK | 2.1
QMAKKAEAFQLYQESAQLDMLLEK | 2.49
QMAKKAEAFQLYQERAQLDMLLEK | 2.92
QMAKKAEAFQLYQEVAQLDMLLEK | 2.33
QMAKKAEAFQLYQEFAQLDMLLEK | 2.24
QMAKKAEAFQLYQEQAQLDMLLEK | 1.44
QMAKKAEAFQLYQEMAQLDMLLEK | 1.24
QMAKKAEAFQLYQEWAQLDMLLEK | 2.68
QMAKKAEAFQLYQETAQLDMLLEK | 2.76
QMAKKAEAFQLYQEKAQLDMLLEK | 1.56
QMAKKAEAFQLYQEHAQLDMLLEK | 2.2

Variant | protein stability index
QMAKKAEAFQLYQEEAQLDMLLEK | 4.04
QMAKKAEAFQLYQECAQLDMLLEK | 2.65
QMAKKAEAFQLYQENAQLDMLLEK | 2.32
QMAKKAEAFHLYQEAAQLDMLLEK | 2.03
QMAKKAEAFVLYQEAAQLDMLLEK | 2.87
QMAKKAEAFKLYQEAAQLDMLLEK | 1.32
QMAKKAEAFLLYQEAAQLDMLLEK | 2.09
QMAKKAEAFFLYQEAAQLDMLLEK | 1.28
QMAKKAEAFYLYQEAAQLDMLLEK | 2.59
QMAKKAEAFELYQEAAQLDMLLEK | 2.49
QMAKKAEAFGLYQEAAQLDMLLEK | 1.72
QMAKKAEAFSLYQEAAQLDMLLEK | 2.06
QMAKKAEAFNLYQEAAQLDMLLEK | 2.03
QMAKKAEAFRLYQEAAQLDMLLEK | 1.87
QMAKKAEAFMLYQEAAQLDMLLEK | 1.52
QMAKKAEAFALYQEAAQLDMLLEK | 2.07
QMAKKAEAFDLYQEAAQLDMLLEK | 2.01
QMAKKAEAFCLYQEAAQLDMLLEK | 1.74
QMAKKAEAFTLYQEAAQLDMLLEK | 2.79
QMAKKAEAFPLYQEAAQLDMLLEK | 2.08
